# Where two headings read alike, the source gives them in different places. Ends that are not written are not given here.
# T1: GIP acceptor (UniProt P48546 22-466, limits assumed)
# T1 sequence (looked up): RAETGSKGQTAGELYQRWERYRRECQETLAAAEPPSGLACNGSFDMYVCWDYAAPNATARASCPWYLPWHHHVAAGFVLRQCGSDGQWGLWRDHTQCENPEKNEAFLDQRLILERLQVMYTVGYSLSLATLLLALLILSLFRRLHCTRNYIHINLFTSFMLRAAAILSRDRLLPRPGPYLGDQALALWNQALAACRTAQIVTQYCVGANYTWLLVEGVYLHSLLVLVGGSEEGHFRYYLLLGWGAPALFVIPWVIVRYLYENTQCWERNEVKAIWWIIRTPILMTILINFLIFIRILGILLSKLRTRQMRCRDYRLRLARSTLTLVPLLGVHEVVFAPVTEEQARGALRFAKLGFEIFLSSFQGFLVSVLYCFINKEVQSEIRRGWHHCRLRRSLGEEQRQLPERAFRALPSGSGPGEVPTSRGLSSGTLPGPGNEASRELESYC
# Legend:
# Experiment in all cases: cell-based or functional assay
# GLP-1 acceptor [1] = biological target: T2, GLP-1 acceptor (UniProt P43220 24-463, limits assumed)
# FGFR1/KLB acceptor = FGFR1/KLB acceptor (UniProt P11362 22-822; Q86Z14 1-1044, limits assumed)
# GLP-1 acceptor [2] = biological target: T2, GLP-1 acceptor; remark: listed apart in the source
# GCG acceptor = GCG acceptor (UniProt P47871 26-477, limits assumed)
# GIP acceptor = biological target: T1, GIP acceptor
# Chain of FGFR1/KLB acceptor (P11362 22-822 limits assumed, chain 1 of 2): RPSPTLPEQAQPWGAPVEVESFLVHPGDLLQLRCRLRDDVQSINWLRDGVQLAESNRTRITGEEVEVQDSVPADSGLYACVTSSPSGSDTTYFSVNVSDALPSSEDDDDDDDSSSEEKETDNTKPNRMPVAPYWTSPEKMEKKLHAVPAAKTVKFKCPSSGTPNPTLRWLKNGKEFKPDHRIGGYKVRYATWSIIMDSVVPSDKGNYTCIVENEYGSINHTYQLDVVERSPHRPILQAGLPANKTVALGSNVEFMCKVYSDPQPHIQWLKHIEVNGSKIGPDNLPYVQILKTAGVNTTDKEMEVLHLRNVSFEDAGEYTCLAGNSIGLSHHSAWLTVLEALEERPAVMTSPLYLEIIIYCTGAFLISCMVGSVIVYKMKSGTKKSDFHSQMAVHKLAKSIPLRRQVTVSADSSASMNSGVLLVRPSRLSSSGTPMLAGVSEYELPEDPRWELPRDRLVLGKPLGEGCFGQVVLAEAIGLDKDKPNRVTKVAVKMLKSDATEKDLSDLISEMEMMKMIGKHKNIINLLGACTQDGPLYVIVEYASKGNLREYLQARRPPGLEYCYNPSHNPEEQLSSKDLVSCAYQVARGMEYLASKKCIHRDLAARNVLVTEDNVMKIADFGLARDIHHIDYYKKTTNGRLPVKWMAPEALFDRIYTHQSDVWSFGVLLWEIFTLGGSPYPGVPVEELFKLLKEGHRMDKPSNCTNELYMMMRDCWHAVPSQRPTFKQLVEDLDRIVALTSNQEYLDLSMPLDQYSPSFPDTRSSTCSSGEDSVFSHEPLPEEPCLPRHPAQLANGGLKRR
# Chain of FGFR1/KLB acceptor (Q86Z14 whole entry, chain 2 of 2): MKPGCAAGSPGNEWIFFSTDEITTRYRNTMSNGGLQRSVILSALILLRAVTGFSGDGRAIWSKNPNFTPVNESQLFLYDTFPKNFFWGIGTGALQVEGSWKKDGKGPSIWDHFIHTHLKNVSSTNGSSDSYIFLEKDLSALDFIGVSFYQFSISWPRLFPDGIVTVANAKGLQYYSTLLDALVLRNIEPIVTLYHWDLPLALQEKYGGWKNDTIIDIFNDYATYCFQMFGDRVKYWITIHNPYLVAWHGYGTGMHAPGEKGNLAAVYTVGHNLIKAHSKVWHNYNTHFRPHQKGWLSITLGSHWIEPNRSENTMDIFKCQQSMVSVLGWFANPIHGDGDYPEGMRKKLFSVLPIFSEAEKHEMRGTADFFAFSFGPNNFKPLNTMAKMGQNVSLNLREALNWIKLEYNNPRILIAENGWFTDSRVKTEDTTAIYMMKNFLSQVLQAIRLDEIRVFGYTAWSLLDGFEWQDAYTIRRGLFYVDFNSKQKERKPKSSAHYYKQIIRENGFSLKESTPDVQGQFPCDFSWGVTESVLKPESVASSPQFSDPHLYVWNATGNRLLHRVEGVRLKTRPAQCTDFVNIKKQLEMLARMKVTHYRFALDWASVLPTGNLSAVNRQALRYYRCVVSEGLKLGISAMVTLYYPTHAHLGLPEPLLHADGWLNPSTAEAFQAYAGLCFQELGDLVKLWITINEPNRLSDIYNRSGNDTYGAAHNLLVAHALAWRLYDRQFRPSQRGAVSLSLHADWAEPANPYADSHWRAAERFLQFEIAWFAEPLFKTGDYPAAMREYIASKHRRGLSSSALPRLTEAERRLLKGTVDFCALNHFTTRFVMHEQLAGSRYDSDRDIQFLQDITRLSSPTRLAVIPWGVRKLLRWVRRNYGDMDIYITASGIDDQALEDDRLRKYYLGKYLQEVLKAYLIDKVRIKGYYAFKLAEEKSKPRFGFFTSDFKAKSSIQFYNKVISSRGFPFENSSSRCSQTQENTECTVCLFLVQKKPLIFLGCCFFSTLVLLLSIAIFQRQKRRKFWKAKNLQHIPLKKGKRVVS
# Chain of GCG acceptor (P47871 26-477 limits assumed): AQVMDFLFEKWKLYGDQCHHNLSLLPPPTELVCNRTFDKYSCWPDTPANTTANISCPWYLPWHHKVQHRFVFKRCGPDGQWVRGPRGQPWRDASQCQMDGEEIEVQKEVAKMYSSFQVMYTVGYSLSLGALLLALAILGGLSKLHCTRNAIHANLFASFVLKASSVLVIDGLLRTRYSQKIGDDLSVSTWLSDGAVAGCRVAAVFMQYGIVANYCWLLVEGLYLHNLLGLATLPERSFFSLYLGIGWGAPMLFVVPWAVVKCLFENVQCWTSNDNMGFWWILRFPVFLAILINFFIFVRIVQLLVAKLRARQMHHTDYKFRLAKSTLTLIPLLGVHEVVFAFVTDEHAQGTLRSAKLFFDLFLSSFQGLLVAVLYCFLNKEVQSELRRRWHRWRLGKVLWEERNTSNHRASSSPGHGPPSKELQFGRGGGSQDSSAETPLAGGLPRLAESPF
binder,measurement,setting,value
HSEGTFTSDVSSYLEEQAAKEFIAWLVKGGG [GLP#5],"EC50, cAMP accumulation assay; Transient cell line, n = 1",GLP-1 acceptor [1],0.00752 nM
HGEGTFTSDVSSYLEEQAAKEFIAWLVRGRG [GLP#8],"EC50, cAMP accumulation assay; Transient cell line, n = 2",GLP-1 acceptor [1],0.00195 nM
HGEGTFTSDVSSYLEEQAAKEFIAWLVKGGG (ends and bridges not checked) [GLP#9],"EC50, cAMP accumulation assay; Stable cell line, n = 4",GLP-1 acceptor [1],0.00208 nM
same,"EC50, cAMP accumulation assay; Transient cell line, n = 3",GLP-1 acceptor [1],0.00071 nM
HSEGTFTSDVSEYLEKQAAKEFIAWLVKGR [GLP#6],"EC50, cAMP accumulation assay; Transient cell line, n = 2",GLP-1 acceptor [1],0.0015 nM
FGF#1 (ligand) HPIPDSSPLLQFGGQVRQRYLYTDDAQQTEAHLEIREDGTVGGAADQSPESLLQLKALKPGVIQILGVKTSRFLCQRPDGALYGSLHFDPEACSFREEIRPDGYNVYQSEAHGLPLHLPGNKSPHRDPAPRGPARFLPLPGLPPALPEPPGILAPQPPDVGSSDPLSMVTGLEANRSPSYES,"EC50, FGFR1/KLB functional assay; n = 2",FGFR1/KLB acceptor,21 nM
HGQGTFTSDYSKYLDEQAAKEFIAWLMNT [GLP/GCG#3],"EC50, cAMP accumulation assay; Transient cell line, n = 1",GLP-1 acceptor [2],0.013 nM
same,"EC50, cAMP accumulation assay; Transient cell line, n = 1",GCG acceptor,> 5 nM
HGEGTFTSDVSEYLEKQAAQEFIAWLVKGR [GLP#10],"EC50, cAMP accumulation assay; Transient cell line, n = 2",GLP-1 acceptor [1],0.00826 nM
HGEGTFTSDVSEYLEKQAAKEFIAWLVRGRG [GLP#7],"EC50, cAMP accumulation assay; Transient cell line, n = 1",GLP-1 acceptor [1],0.023 nM
HSEGTFTSDVSSYLEGQAAQEFIAWLVNGR [GLP#1],"EC50, cAMP accumulation assay; Transient cell line, n = 1",GLP-1 acceptor [1],0.159 nM
YGEGTFISDYSIAMDKIHQQDFVNWLLAQKGKKNDWKHNITQ [GIP#1],"EC50, cAMP accumulation assay; Transient cell line, n = 3",GIP acceptor,0.0175 nM
FSEGTFISDYSIAMDKIHQQDFVNWLLAQKGKKNDWKHNITQ [GIP#5],"EC50, cAMP accumulation assay; Transient cell line, n = 1",GIP acceptor,0.0819 nM
YSEGTFISDYSIAMDKIHQQDFVNWLLAQKGKKNDWKHNITQ [GIP#2],"EC50, cAMP accumulation assay; Stable cell line, n = 2",GIP acceptor,0.012 nM
same,"EC50, cAMP accumulation assay; Transient cell line, n = 3",GIP acceptor,0.00663 nM
YGEGTFISDYSIAMDKIRQQDFVNWLLAQKGKKNDWKHNITQ [GIP#7],"EC50, cAMP accumulation assay; Transient cell line, n = 1",GIP acceptor,0.0769 nM
HGEGTFTSDVSEYLEKQAAKEFIAWLVNGR [GLP#3],"EC50, cAMP accumulation assay; Transient cell line, n = 2",GLP-1 acceptor [1],0.00225 nM
FGF#5 (ligand) HPIPDSSPLLQFGGQVRQVYLYTDDAQQTEAHLEIREDGTVGGAADQSPESLLQLKALKPGVIQILGVKTSRFLCQRPDGALYGSLHFDPEACSFREDLKEDGYNVYQSEAHGLPLHLPGNKSPHRDPAPRGPARFLPLPGLPPALPEPPGILAPQPPDVGSSDPLSMVEGSQGRSPSYES,"EC50, FGFR1/KLB functional assay; n = 2",FGFR1/KLB acceptor,22.3 nM
FGF#9 (ligand) HPIPDSSPLLQFGGQVRQVYLYTDDAQQTEAHLEIREDGTVGGAADQSPESLLQLKALKPGVIQILGVKTSRFLCQRPDGALYGSLHFDPEACSFRERLLEDGYNVYQSEAHGLPLHLPGNKSPHRDPAPRGPARFLPLPGLPPALPEPPGILAPQPPDVGSSDPLSMVEGSQGRSPSYES,"EC50, FGFR1/KLB functional assay; n = 2",FGFR1/KLB acceptor,19.1 nM
FGF#7 (ligand) HPIPDSSPLLQFGGQVRQVYLYTDDAQQTEAHLEIREDGTVGGAADQSPESLLQLKALKPGVIQILGVKTSRFLCQRPDGALYGSLHFDPEACSFREDLKEDGYNVYQSEAHGLPLHLPGNKSPHRDPAPRGPARFLPLPGLPPALPEPPGILAPQPPDVGSSDPLRLVEPSQLRSPSFE,"EC50, FGFR1/KLB functional assay; n = 2",FGFR1/KLB acceptor,17.7 nM
HSQGTFTSDYSKYLDEQAAKEFIAWLMNT [GLP/GCG#15],"EC50, cAMP accumulation assay; Transient cell line, n = 1",GLP-1 acceptor [2],0.016 nM
same,"EC50, cAMP accumulation assay; Transient cell line, n = 1",GCG acceptor,0.424 nM

# Source: patent US20240066137A1 (ONEGENE BIOTECHNOLOGY, published 2024)
